Assay results from patent US20150266963A1 (ARGEN X B V, published 2015).

Legend:
[1] = target: T1, human CD70 expressed on the surface of cells (human, UniProt P32970 1-193); assay: FACS MFI at 37 C, MKN-45 cells; reference SGN70
T1 construct: whole, on cells; also called cell surface expressed CD70; CD70 on cells
T1 sequence (looked up): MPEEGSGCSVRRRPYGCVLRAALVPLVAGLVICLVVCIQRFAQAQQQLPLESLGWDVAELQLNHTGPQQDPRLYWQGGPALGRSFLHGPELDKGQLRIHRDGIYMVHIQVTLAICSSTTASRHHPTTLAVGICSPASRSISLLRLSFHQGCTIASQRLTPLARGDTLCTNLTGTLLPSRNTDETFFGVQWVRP
Experimental: (§1) Several cancer cell lines were tested by FACS analysis for binding of ARGX-110 and SGN70 (described in US2010/0129362) at saturating mAb concentrations (at least 2 μg/ml). This was either done at 4° C. (1 hour incubation of cells with mAbs) or at 37° C. (15 minutes incubation of cells with mAbs). Binding was detected using anti-hIgG1-Fc-FITC (AF006, Binding Site) or anti-hIgG1-Fc-PE antibody (eBioscience, 12-4998). Fluorescence was measured using a flow cytometer.

[2] = target: cynomolgus monkey Flag-TNC-CD70 (cynomolgus monkey); assay: blocking ELISA; cynomolgus Flag-TNC-CD70; competitor CD27-Fc
Experimental: (§2) In this assay, a microtiter plate (Nunc Maxisorb) was first coated with 100 μl anti-FLAG M2 monoclonal antibody (Sigma Aldrich, F3165) at 1250-fold dilution in PBS (to achieve a final concentration of approximately 3.5 μg/ml) overnight at 4° C. The plate was washed once with PBS-Tween and incubated at RT for 2 hours with 300 μl PBS-1% casein. The plate was washed a further three times with PBS-Tween. 100 μl of 5 ng/ml (80 pM) Flag-TNC-CD70 (The Journal of Immunology, 2009, 183: 1851-1861) diluted in PBS-0.1% casein was added to the plate and incubated at RT for 1 hour while shaking. The plate was washed five times with PBS-Tween. The CD70 mAb to be tested was added to the plate; various concentrations were achieved by diluting the stock antibody solution in PBS-0.1% casein. Immediately thereafter, 50 μl of 1 μg/ml (final concentration 6.5 nM) recombinant human CD27 Fc chimera (R&D systems 382-CD, MW=46.5 kDa) was added, and incubated at RT for 1 hour while shaking. The plate was washed five times with PBS Tween. 100 μl of biotinylated anti-CD27 (eBioscience 13-0271), diluted 500-fold in PBS-0.1% casein, was added, and the plate incubated at RT for a further hour, while shaking. The plate was washed five times with PBS Tween. […] 100 μl TMB was added to the plate and the OD at 620 nm was measured. […]

[3] = target: T1, human CD70 expressed on the surface of …; assay: FACS MFI at 37 C, SU-DHL-6 cells; reference SGN70
Experimental: as §1

[4] = target: T2, recombinant human CD70 (Flag-TNC-CD70) (human, UniProt P32970 39-193); assay: blocking ELISA; Flag-TNC-CD70 captured by anti-FLAG M2; competitor CD27-Fc 6.5 nM
T2 construct: extracellular domain; Captured by anti-Flag mAb in ELISA; as 'recombinant human CD70' immobilised on Biacore CM5 chips; TNC is for trimerisation; also called recombinant CD70; human recombinant CD70; not shown: Flag tag and TNC trimerisation domain
T2 sequence (looked up): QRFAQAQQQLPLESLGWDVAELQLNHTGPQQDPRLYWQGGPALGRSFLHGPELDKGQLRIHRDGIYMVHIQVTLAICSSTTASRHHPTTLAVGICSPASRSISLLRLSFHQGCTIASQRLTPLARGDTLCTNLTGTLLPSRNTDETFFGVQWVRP
Experimental: as §2

[5] = target: T2, recombinant human CD70 (Flag-TNC-CD70); assay: blocking ELISA; human Flag-TNC-CD70; competitor CD27-Fc
Experimental: as §2

[6] = target: T1, human CD70 expressed on the surface of …; assay: FACS MFI at 37 C, A498 cells; reference SGN70
Experimental: as §1

[7] = target: T1, human CD70 expressed on the surface of …; assay: FACS MFI at 37 C, HH cells; reference SGN70
Experimental: as §1

mouse Flag-TNC-CD70 = target: T3, mouse Flag-TNC-CD70 (mouse, UniProt O55237 45-195); assay: ELISA; mouse Flag-TNC-CD70 captured by anti-Flag mAb
T3 construct: extracellular domain; also called mouse CD70; not shown: Flag tag and TNC trimerisation domain
T3 sequence (looked up): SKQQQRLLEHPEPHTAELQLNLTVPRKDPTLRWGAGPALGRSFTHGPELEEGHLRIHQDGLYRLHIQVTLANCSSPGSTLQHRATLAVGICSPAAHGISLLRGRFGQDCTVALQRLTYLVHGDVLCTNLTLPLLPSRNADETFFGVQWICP

[8] = target: T1, human CD70 expressed on the surface of …; assay: FACS MFI at 37 C, Caki-1 cells; reference SGN70
Experimental: as §1

[9] = target: T1, human CD70 expressed on the surface of …; assay: FACS MFI at 37 C, JVM-2 cells; reference SGN70
Experimental: as §1

B1: ARGX-110 (non-fucosylated 41D12 human IgG1) (antibody, V domains shown)
VH: EVQLVESGGGLVQPGGSLRLSCAASGFTFSVYYMNWVRQAPGKGLEWVSDINNEGGTTYYADSVKGRFTISRDNSKNSLYLQMNSLRAEDTAVYYCARDAGYSNHVPIFDSWGQGTLVTVSS
VL: QAVVTQEPSLTVSPGGTVTLTCGLKSGSVTSDNFPTWYQQTPGQAPRLLIYNTNTRHSGVPDRFSGSILGNKAALTITGAQADDEAEYFCALFISNPSVEFGGGTQLTVLG
notes: also called 41D12 (ARGX-110)
- Signal in FACS of ARGX-110/signal in FACS of SGN70 [1]: 10.6 ratio
- IC50 [2]: 0.048 µg/mL
- Signal in FACS of ARGX-110/signal in FACS of SGN70 [3]: 2.4 ratio
- IC50 [4]: 0.067 µg/mL
- IC50 [5]: 0.039 µg/mL
- Signal in FACS of ARGX-110/signal in FACS of SGN70 [6]: 1 ratio
- Signal in FACS of ARGX-110/signal in FACS of SGN70 [7]: 1.7 ratio
- binding result (mouse Flag-TNC-CD70): no binding (tested: dilution series from 10 µg/ml)
- Signal in FACS of ARGX-110/signal in FACS of SGN70 [8]: 1.9 ratio
- Signal in FACS of ARGX-110/signal in FACS of SGN70 [9]: 2.4 ratio
